Measured values: publication PMC9103184, “Kunitz-Type Peptides from Sea Anemones Protect Neuronal Cells against Parkinson’s Disease Inductors via Inhibition of ROS Production and ATP-Induced P2X7 Receptor Activation” (International Journal of Molecular Sciences, 2022)
pKi: −log10 of the molar value. Where two headings read alike, the source gives them in different places.

Assays:
[1] = CD spectroscopy, secondary structural elements (Provencher–Glockner); format: physicochemical; set-up: unit not given here; details: deionized water, Provencher–Glockner method
Description: To calculate secondary structural elements of peptides, circular dichroism (CD) spectroscopy was applied. CD spectroscopy is a fast, well-established, and widely used analytical technique to study secondary structures of proteins and their changes in different environments. According to Figure 3, all spectra in the far UV region (190–240 nm) have similar profiles and are characterized by a positive maximum peak at 193 nm and negative minimum peaks at 202 and 225 nm. […] The peptides have an approximately equal content of secondary structural elements, while a slight increase in α-helixes and decrease in β-structure were found in HCIQ1c9 (Table 1), which might be reflected in the spatial structure and biological activity of the peptide.
(§1) Circular dichroism (CD) spectra were recorded on a Chirascan-Plus CD spectropolarimeter (Applied Photophysics, Leatherhead, UK) in quartz cuvettes with an optical path length of 0.1 cm for the peptide spectrum region. The peptides were dissolved in deionized water ([…]) and incubated at temperatures ranging from 25 °C to 100 °C for 20–25 min before recording the CD spectra. The secondary structure elements were calculated using the Provencher–Glockner method using advanced Provencher calculation programs from the CDPro software package (Leatherhead, UK).

[2] = tested on: serine proteinases; details: cited from earlier work
Description: A new peptide, HCIQ1c9, with Gly17Arg at position P1’ of the reactive site was also found in a combinatorial library of H. crispa Kunitz-type peptides and produced in E. coli. Thus, in this work four isoforms of Kunitz-type peptides with point a.a. substitutions were studied in various in vitro models.

[3] = target: T1, trypsin (Bos taurus, UniProt P00760); details: cited from earlier work
T1 sequence (P00760 24-246): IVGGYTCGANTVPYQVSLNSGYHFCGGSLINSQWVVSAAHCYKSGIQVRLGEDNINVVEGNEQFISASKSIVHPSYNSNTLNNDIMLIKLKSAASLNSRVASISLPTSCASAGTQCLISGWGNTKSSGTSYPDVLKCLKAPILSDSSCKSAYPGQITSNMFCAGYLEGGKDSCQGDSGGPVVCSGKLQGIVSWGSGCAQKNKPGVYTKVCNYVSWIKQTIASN
Protocol: As mentioned above, the main function of Kunitz-type peptides is the inhibition of proteases, in particular trypsin. To confirm the bioactive conformation of HCIQ1c9, its ability to inhibit trypsin was determined. […] The decrease in trypsin-inhibitory activity of HCIQ1c9 and HCIQ4c7 in comparison with HCIQ2c1 is probably associated ... || The active spatial conformation of the peptides was also confirmed by the presence of trypsin-inhibitory activity. […] Thus, both negatively and positively charged residues at position P1’ led to decreases in the trypsin-inhibitory activity of the peptides, with HCIQ4c7 beings a stronger trypsin inhibitor than HCIQ1c9. This was due to the residue Glu17, which can make additional contact with ...

[4] = Thermal stability by CD spectroscopy; format: physicochemical
Protocol: Figure 5 Evaluation of the thermal stability of peptides in deionized water via CD spectroscopy. Recordings of the CD spectra of HCIQ2c1 (a), HMIQ3c1 (b), HCIQ4c7 (c), and HCIQ1c9 (d) were conducted in the far UV region (190–240 nm) after the solutions were incubated over a temperature range from 25 °C to 100 °C for 20–25 min.
as §1

[5] = tested on: Neuro-2a cells; details: cited from earlier work
Protocol: The peptides were tested for cell viability in in vitro 6-OHDA-, rotenone-, paraquat-, and MPP^+-induced Parkinson’s disease models. All peptides were non-toxic on Neuro-2a cells at a concentrations up to 10 µM (Figure S2). The viability of neurotoxin-treated cells was about 65% versus control (Figure 7).

[6] = target: T1, trypsin; experiment: Residual trypsin-inhibitory activity after heating; format: biochemical; details: all temperature ranges up to 100 °C; 7 μM peptide, 1.2 mM BAPNA, 37 °C, 410 nm, three parallel experiments
Protocol: Figure 6 The effects of temperature on the trypsin-inhibitory activity levels of peptides. Peptides were incubated at the temperatures for 30 min and their residual activities were measured.
The temperature influence on the activity levels of peptides was assessed by measuring their residual inhibitory activity levels. After preincubation at temperatures ranging from 25 to 100 °C for 25 min, the peptide solutions were added to trypsin solution and the reaction mixtures were incubated for 10 min at 37 °C, then 1.2 mM BAPNA was added, followed by incubation at 37 °C for 30 min. The final concentration of the peptides was 7 μM. Substrate hydrolysis was measured at 410 nm. The residual activity was calculated based on the results of three parallel experiments according to the following equation [60]:% = (1 − residual enzyme activity/enzyme activity without inhibitor) × 100

HCIQ2c1: recombinant Kunitz-type peptide from Heteractis crispa, UniProtKB ID A0A6B7FBD3 (IQGNICSEPKKVGRCRGSFPRFYFDSETGKCTPFIYGGCGGNGNNFETLHACRAICRA; UniProt A0A6B7FBD3 28-85, looked up)
Unordered Structure [1]: 35.7 | β-Turn [1]: 19.0 | α-Helix II ([1]; irregular structure): 13.9 | β-Structure II ([1]; irregular structure): 6.9 | β-Structure I ([1]; regular structure): 17.4 | α-Helix I ([1]; regular structure, far UV 190–240 nm): 7.1 | α-Helix III ([1]; summary value): 21.0 | β-Structure III ([1]; summary value): 24.3 | interaction with serine proteinases [2]: interact with several serine proteinases, including inflammatory ones | pKi ([3]; as shown previously, ref not printed at place, read-out: inhibited trypsin at (order of magnitude)): ~8.00 | pKi ([3]; read-out: trypsin inhibitory constant (Ki)): 7.28 | CD spectral change on further heating ([4]; 100 °C, deionized water, 20–25 min): decreased positive peaks at 193 nm | thermostability: retains conformation and biological activity until ([4]; CD spectra and residual trypsin-inhibitory activity): 90–100 °C | CD spectrum: no significant changes after heating until ([4]; deionized water, 25–100 °C for 20–25 min, 190–240 nm): 90 °C | increase in viability of 6-OHDA-treated cells [5]: 47% | protection against 6-OHDA compared with HCIQ4c7 [5]: stronger neuroblastoma cell viability against 6-OHDA than HCIQ4c7 | trypsin-inhibitory activity after heating [6]: inhibit trypsin completely at all temperature ranges
